B1: DAT C-terminal tail peptide (6 aa) (peptide)
peptide: RHWLKV
B2: MBP-PICK1 fusion protein (natural protein, human, UniProt Q9NRD5 1-415, looked up)
chain: MFADLDYDIEEDKLGIPTVPGKVTLQKDAQNLIGISIGGGAQYCPCLYIVQVFDNTPAALDGTVAAGDEITGVNGRSIKGKTKVEVAKMIQEVKGEVTIHYNKLQADPKQGMSLDIVLKKVKHRLVENMSSGTADALGLSRAILCNDGLVKRLEELERTAELYKGMTEHTKNLLRAFYELSQTHRAFGDVFSVIGVREPQPAASEAFVKFADAHRSIEKFGIRLLKTIKPMLTDLNTYLNKAIPDTRLTIKKYLDVKFEYLSYCLKVKEMDDEEYSCIALGEPLYRVSTGNYEYRLILRCRQEARARFSQMRKDVLEKMELLDQKHVQDIVFQLQRLVSTMSKYYNDCYAVLRDADVFPIEVDLAHTTLAYGLNQEEFTDGEEEEEEEDTAAGEPSRDTRGAAGPLDKGGSWCDS

What was measured:
[1] = biological target: MBP-PDZ (PDZ domain of PICK1 fused to MBP) (human, UniProt Q9NRD5 22-105); assay: ITC
[2] = biological target: the molecule itself; assay: SAXS

Row | Binder | Kd [1] [µM] | stoichiometry N [2]
1 | B1 | ~1.9 | 
2 | B2 |  | 2

Source: article PMC4454178 (Molecular Biology of the Cell, 2015)
